Values quoted from earlier work in publication PMC10449480.

Biological target: tryptophanyl-tRNA synthetase (Geobacillus stearothermophilus) (UniProt P00953)

Kd: 5 nM
Substance: tryptophanyl-tRNA synthetase (from UniProt P00953)
